These results are taken from patent EP4653461A1 (DE NOVO BIOTHERAPEUTICS CO., LTD., dated 2025).

Where a chain is given by its changes, count along the chain named.

To fix the notation:
B1: u6506gj130-1-10 (1-10) (antibody, IgG4, V domains shown)
VH: QVQLQQPGAELVKPGASVKLSCKASGYIFTSYWMHWVKQRPGQGLEWIGMIHPNSGSTNYNEKFKSKATLTVDKSSSTAYMQLSSLTSEDSAVYYCAREGNWARGYFEYWGQGTTLTVSS
VL: DIKMTQSPSSMYASLGERVTITCKASQDINSYLSWFQQKPGKSPKTLIYRANRLVDGVPSRFSGSGSGQDYSLTISSLEYEDVGMYYCLQYDEFPYTFGGGTKLEIK
notes: Beacon screening clone; made as mouse/human chimeric IgG4
B2: 21C9E9 (2-5) (antibody, IgG4, V domains shown)
VH: DVQLQESGPGLVKTSQSLSLTCSVTGYSITSDDYWNWIRQFPGNKLEWVGYISYDGSNNYNPSLKNRISITRDTSKNQFFLKLNSVTTEDTATYYCARLGYPAMDSWGQGTSVTVSS
VL: B1 VL with Y80F, V83L, M85I, Y96W
notes: Hybridoma clone; made as mouse/human chimeric IgG4
B3: u6506gj130-1-4-vk2 (1-4-2) (antibody, IgG4, V domains shown)
VH: DVQLQQSVAELVRPGASVNLSCTASGFNIKNTYMHWVKQRPEQGLEWIGMIDPANGNTKYAPKFQGKATITADTSSNTAYLHLSSLTSEDTAIYYCARWAYDGYYESYFDYWGQGTTLTVSS
VL: SIVMTQSPKFLLVSAGDRVTITCKASQSVSNDVAWYQQKPGQSPKLLIYYASNRYTGVPDRFTGSGYGTDFTFTISTVQAEDLAVYFCHQDYSSPFTFGSGTKLEIK
notes: as for B1
B4: 32C9F4 (2-2) (antibody, IgG4, V domains shown)
VH: QVQLQQPGAELVKPGASVKLSCKASGYTFTSYWMHWVKQRPGQGLEWIGMIHPNSGVTKYNEKFKSKATLTVDKSSSTAYMQLSSLTSEDSAVYFCAGDGRFAYWGQGTLVTVSA
VL: DIQMTQSPSSLSASLGERVSLTCRASQDIGSSLNWLQQEPDGTIKRLIYATSSLDSGVPKRFSGSRSGSDYSLTISSLESEDFVDYYCLQYASSPWTFGGGTKLEIK
notes: as for B2
B5: 8D5A6C1 (2-10) (antibody, IgG4, V domains shown)
VH: B4 VH with K19R, S25F
VL: B4 VL with S31N
notes: as for B2
B6: 45A10D5 (2-1) (antibody, IgG4, V domains shown)
VH: B4 VH with V57S, K59N, F95Y, A97V, G98Y
VL: B4 VL with W96F, G100S
notes: as for B2
B7: u6506gj130-1-8 (1-8) (antibody, IgG4, V domains shown)
VH: QVQLQQPGAELVRPGTSVKLSCKASGYTFTSYWMHWVKQRPGQGLEWIGVIDPSDSYTNYNQKFKGKATLTVDTSSSTAYMQLSSLTSEDSAVYYCARSSSAYYSNYEAYWGQGTLVTVSA
VL: QIVLTQSPAIMSASPGEKVTISCSASSSVGYMFWYQQKPGSSPKPWIYRTSNLASGVPARFSGSGSGTSYSLTISSMEAEDAATYYCQQYHSYPPMWTFGGGTKLEIK
notes: as for B1

The target in the first experiment is T1, 6506GJ130-1A: Human NKP46 Recombinant Protein (His) (human, UniProt O76036 22-258, limits assumed).
T1 construct: also called human NKp46 protein; not shown: His tag
T1 sequence (O76036 22-258 limits assumed): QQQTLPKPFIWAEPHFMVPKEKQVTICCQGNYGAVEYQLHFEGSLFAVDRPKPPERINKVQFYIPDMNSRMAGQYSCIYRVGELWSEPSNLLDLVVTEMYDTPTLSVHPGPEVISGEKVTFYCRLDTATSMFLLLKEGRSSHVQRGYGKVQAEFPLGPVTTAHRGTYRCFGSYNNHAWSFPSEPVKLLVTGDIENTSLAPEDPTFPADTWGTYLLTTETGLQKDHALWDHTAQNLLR
Briefly: competition ELISA, NKp46-His coated; no competitor (Control). (In general: ELISA stands for enzyme-linked immunosorbent assay.)
In the case of B1, the ELISA signal was found to be 1.6.
The same measure, in the same setting: the result for B2 reads 1.31.
On the same count and under the same terms, the result for B3 reads 1.44; that for B4, 1.34; that for B5, 1.27.
Regarding B6, the ELISA signal worked out at 1.63.
As to B7, the ELISA signal amounted to 1.45.

For the next experiment, the target named is T1, 6506GJ130-1A: Human NKP46 Recombinant …. Description: competition ELISA, NKp46-His coated; competitor 1-4-2 at 20 ug/ml.
In the case of B1, the ELISA signal is 0.895.
As to B2, the ELISA signal came out at 0.612.
For the molecule B3, the ELISA signal was found to be 0.082.
B4: the ELISA signal was 0.931.
On the same count and under the same terms, the result for B5 reads 0.724.
Same read-out and setting: next, B6: 0.658; B7: 1.18.

The target is the same in a further experiment. Description: competition ELISA, NKp46-His coated; competitor 2-1 at 20 ug/ml.
Regarding B1, the ELISA signal stood at 0.121.
The same measure, in the same setting: the result for B2 reads 1.28.
Still for that read-out and setting: next, B3: 0.764; B4: 0.241.
Same read-out and setting: next, B5: 0.245; B6: 0.097.
B7: the ELISA signal is 1.4.

For a further experiment the target is unchanged. Briefly: competition ELISA, NKp46-His coated; competitor 1-8 at 20 ug/ml.
In the case of B1, the ELISA signal was found to be 1.71.
Same read-out and setting: next, B2: 1.29; B3: 1.24; B4: 1.37.
On the same count and under the same terms, the result for B5 reads 1.3; that for B6, 1.6.
On the same count and under the same terms, the result for B7 reads 0.111.

Another experiment shares this target. Description: competition ELISA, NKp46-His coated; competitor 2-2 at 20 ug/ml.
For B1, the ELISA signal stood at 0.086.
Same read-out and setting: the result for B2 reads 1.28; that for B3, 0.829.
For the molecule B4, the ELISA signal is 0.093.
On the same count and under the same terms, next, B5: 0.154.
Same read-out and setting: next, B6: 0.087.
Regarding B7, the ELISA signal came out at 1.43.

The next experiment has the same target. Description: competition ELISA, NKp46-His coated; competitor 2-5 at 20 ug/ml.
Take B1: the ELISA signal is 1.44.
Same read-out and setting: next, B2: 0.201; B3: 0.852.
For the molecule B4, the ELISA signal amounted to 1.2.
For the molecule B5, the ELISA signal came to 1.13.
On the same count and under the same terms, the result for B6 reads 1.32; that for B7, 0.197.

The next experiment shares this target. Briefly: competition ELISA, NKp46-His coated; competitor 2-10 at 20 ug/ml.
In the case of B1, the ELISA signal came out at 0.097.
On the same count and under the same terms, next, B2: 1.3.
The same measure, in the same setting: next, B3: 0.691; B4: 0.096.
The same measure, in the same setting: the result for B5 reads 0.083; that for B6, 0.1; that for B7, 1.34.

For another experiment the target is unchanged. Briefly: SPR, Biacore 8K, antibody captured on Protein A chip, NKp46 as analyte.
Regarding B1, the Kd (commonly the constant that tells how readily two partners part at equilibrium) turned out to be 9.34 nM; the off-rate constant (koff) (in general, a measure of how fast the partners let go of each other) was found to be 0.00229 s⁻¹; the on-rate constant (kon) (as a rule, a measure of how fast the partners come together) was determined as 246000 M⁻¹ s⁻¹.
The matching figures for B2: 4.96 nM, 0.000116 s⁻¹ and 23400 M⁻¹ s⁻¹.
For B3, in that order: 18.3 nM, 0.0038 s⁻¹ and 207000 M⁻¹ s⁻¹.
As for B4, the Kd came to 1.03 nM, the koff was 0.000542 s⁻¹ and the kon was determined as 527000 M⁻¹ s⁻¹.
The matching figures for B5: 1.29 nM, 0.000615 s⁻¹ and 476000 M⁻¹ s⁻¹.
For B6, in that order: 30 nM, 0.0113 s⁻¹ and 376000 M⁻¹ s⁻¹.
The matching figures for B7: 11 nM, 0.00866 s⁻¹ and 790000 M⁻¹ s⁻¹.

Another experiment shares this target. Description: competition ELISA, NKp46-His coated; competitor 1-2 at 20 ug/ml.
In the case of B1, the ELISA signal came to 1.04.
For the molecule B2, the ELISA signal worked out at 1.3.
On the same count and under the same terms, next, B3: 0.1; B4: 1.05; B5: 0.998.
Still for that read-out and setting: the result for B6 reads 1.12; that for B7, 1.61.

Another experiment has the same target. Description: competition ELISA, NKp46-His coated; competitor 1-10 at 20 ug/ml.
Take B1: the ELISA signal came out at 0.095.
On the same count and under the same terms, next, B2: 1.4; B3: 0.662; B4: 0.159.
The same measure, in the same setting: the result for B5 reads 0.176; that for B6, 0.087; that for B7, 1.45.

A further experiment shares this target. Briefly: competition ELISA, NKp46-His coated; competitor 2-7 at 20 ug/ml.
With B1, the ELISA signal was determined as 0.08.
As to B2, the ELISA signal worked out at 1.33.
On the same count and under the same terms, next, B3: 0.686; B4: 0.098.
Still for that read-out and setting: the result for B5 reads 0.123.
On the same count and under the same terms, next, B6: 0.077; B7: 1.39.

Another experiment shares this target. Briefly: competition ELISA, NKp46-His coated; competitor 2-3 at 20 ug/ml.
With B1, the ELISA signal turned out to be 0.092.
The same measure, in the same setting: the result for B2 reads 1.27.
Still for that read-out and setting: next, B3: 0.785; B4: 0.092.
Same read-out and setting: next, B5: 0.091; B6: 0.093.
On to B7, for which the ELISA signal is 1.35.
